Patent US20130137856A1 (published 2013)
Where a chain is given by its changes, count along the chain named.

Legend:
[1] = target: β2AR truncated after amino acid 365 (β2AR-365) having an amino terminal Flag epitope tag, native, … (human, UniProt P07550 1-365); assay: cell-based or functional assay
[2] = target: full-length human β2AR in commercial insect cell-derived membranes (human, UniProt P07550 1-413); assay: cell-based or functional assay

B1: Nb71 (VHH, not shown: small tags and cut ends)
VHH: QVQLQESGGGLVQPGGSLRLSCAASGFAFSSYELRWYRQAPGKQHELVAGITTGGNTYYADSVKGRFTISRDNAKNTVYLQMSNLRPEDTAVYACNANWDLLSDYWGQGTQVTVSS
- Isoproterenol Ki, [3H]-DHA competition binding on Sf9 membranes in the presence of 1 µM nanobody (β2AR alone: 295) [1]: 10.6 nM

B2: Nanobody-80 (Nb80) (VHH, not shown: small tags and cut ends)
VHH: QVQLQESGGGLVQAGGSLRLSCAASGSIFSINTMGWYRQAPGKQRELVAAIHSGGSTNYANSVKGRFTISRDNAANTVYLQMNSLKPEDTAVYYCNVKDYGAVLYEYDYWGQGTQVTVSS
- Potency shift of CGP12177A (antagonist): IC50 with irrelevant Nb / IC50 with 500 nM Nb80, 3H-DHA competition [2]: 1 ratio
- Potency shift of ICI118,551 (inverse agonist): IC50 with irrelevant Nb / IC50 with 500 nM Nb80, 3H-DHA competition [2]: 0.9 ratio
- Potency shift of alprenolol (antagonist): IC50 with irrelevant Nb / IC50 with 500 nM Nb80, 3H-DHA competition [2]: 1.1 ratio
- Potency shift of carvedilol (antagonist): IC50 with irrelevant Nb / IC50 with 500 nM Nb80, 3H-DHA competition [2]: 1.2 ratio
- Potency shift of dobutamine (partial agonist): IC50 with irrelevant Nb / IC50 with 500 nM Nb80, 3H-DHA competition [2]: 2.3 ratio
- Potency shift of fenoterol (full agonist): IC50 with irrelevant Nb / IC50 with 500 nM Nb80, 3H-DHA competition [2]: 3.7 ratio
- Potency shift of formoterol (agonist): IC50 with irrelevant Nb / IC50 with 500 nM Nb80, 3H-DHA competition [2]: 4 ratio
- Potency shift of isoproterenol (agonist): IC50 with irrelevant Nb / IC50 with 500 nM Nb80, 3H-DHA competition [2]: 8.8 ratio
- Potency shift of metaproterenol (agonist): IC50 with irrelevant Nb / IC50 with 500 nM Nb80, 3H-DHA competition [2]: 2.9 ratio
- Potency shift of procaterol (agonist): IC50 with irrelevant Nb / IC50 with 500 nM Nb80, 3H-DHA competition [2]: 2.3 ratio
- Potency shift of ritodrine (agonist): IC50 with irrelevant Nb / IC50 with 500 nM Nb80, 3H-DHA competition [2]: 2.7 ratio
- Potency shift of salbutamol (partial agonist): IC50 with irrelevant Nb / IC50 with 500 nM Nb80, 3H-DHA competition [2]: 4.2 ratio
- Potency shift of salmeterol (full agonist): IC50 with irrelevant Nb / IC50 with 500 nM Nb80, 3H-DHA competition [2]: 3.3 ratio
- Potency shift of terbutaline (partial agonist): IC50 with irrelevant Nb / IC50 with 500 nM Nb80, 3H-DHA competition [2]: 4.3 ratio
- Potency shift of timolol (antagonist): IC50 with irrelevant Nb / IC50 with 500 nM Nb80, 3H-DHA competition [2]: 0.6 ratio

B3: Nb65 (VHH, not shown: small tags and cut ends)
VHH: B2 VHH with N61D, K64R, A75K
- Isoproterenol Ki, [3H]-DHA competition binding on Sf9 membranes in the presence of 1 µM nanobody (β2AR alone: 295) [1]: 13.8 nM

B4: Nb67 (VHH, not shown: small tags and cut ends)
VHH: QVQLQESGGGLVQAGGSLRLSCAASGTISSFIAMGWYRQSPGKQRELVAGITSGGETNYEDSVKGRFTISRDNAKNTLYLQMNTLKPEDTAVYYCNAQVFADIFNLINYWGQGTQVTVSS
- Isoproterenol Ki, [3H]-DHA competition binding on Sf9 membranes in the presence of 1 µM nanobody (β2AR alone: 295) [1]: 19.4 nM
